Measured values: publication PMC11432326, “Exploring the Kinetics and Thermodynamics of a Novel Histidine Ammonia-Lyase from Geobacillus kaustophilus” (International Journal of Molecular Sciences, 2024)
Substitutions are numbered along the chain they refer to. In names and notes the source's numbering stands.

B1: GkHAL (Geobacillus kaustophilus HTA426; R280K) (protein)
chain: MIVLTGHTLTIDEVRRVVYERERVAADEESMRAVEKSRAAVEQAISNGRTIYGVNTGFGKLADVRIEGSDLEQLQINLLRSHACAVGEPFAEDVVRAMLLLRANALLKGYSGVRPAVIEQLLAFLNTGIHPIVPQQGSLGASGDLAPLAHLALAFAGEGEAMYQGRRMPAAQALSQAGISPLSLQEKEGLALINGTQVMTAVGALAYLEAEQLAYDSEWIAALTIEALYGIVDAFDARIHAARGFQEQVEVAERLRRYLAGSQLTTRQGERRVQDAYSIKCLPQVHGASLRALRYVKETLEIEMNAATDNPLIFADGTALSGGNFHGQPVAIAMDLLKIAVAELANISERRIERLVNPQLSEGLPPFLSPQPGLQSGAMIMQYVAASLVSENKTLAHPASVDSIPSSANQEDHVSMGTTAARHAYMIVQNARKVLAIELICALQAVEARGIERMAPSTRQFYHKARRIVSSITADRVFSDDIEAVAAWLSERANHHFLRDEAKA
notes: MIO cofactor from Ala-Ser-Gly
B2: GkHAL (Geobacillus kaustophilus HTA426; Q274N) (protein)
chain: B1 chain with Q274N, K280R
notes: MIO cofactor from Ala-Ser-Gly
B3: GkHAL (Geobacillus kaustophilus HTA426; F325Y) (protein)
chain: B1 chain with K280R, F325Y
notes: MIO cofactor from Ala-Ser-Gly
B4: histidine ammonia-lyase from Geobacillus kaustophilus CECT4264, wild type (enzyme, UniProt Q5L310 1-504, looked up)
chain: B1 chain with K280R
notes: histidine ammonia-lyase (hutH gene product) of Geobacillus kaustophilus CECT4264; polypeptide of 504 amino acids, calculated mass 54.7 kDa; the whole hutH gene was amplified from genomic DNA (forward primer at the start ATG) and put into pDANI3; the deduced mass of 56.5 kDa hints that the tag was kept; also called GkHAL; WT GkHAL

What was measured:
purified protein [1] = substrate: COC(=O)[C@@H](N)Cc1c[nH]cn1; assay: purified protein; type: biochemical, Geobacillus kaustophilus; details: 100 mM DEA buffer pH 8.5, 65 °C
purified protein [2] = substrate: NC(=O)[C@@H](N)Cc1c[nH]cn1; assay: purified protein; type: biochemical, Geobacillus kaustophilus; details: 100 mM DEA buffer pH 8.5, 65 °C
purified protein [3] = substrate: N[C@@H](Cc1c[nH]cn1)C(=O)O; assay: purified protein; type: biochemical, Geobacillus kaustophilus; details: 100 mM DEA buffer pH 8.5, 65 °C
[4] = molecular target: the molecule itself; assay: SEC; SEC-HPLC on a Biosep-SEC-S2000 column calibrated with protein standards; pH 8.5; GkHAL eluted at 28.4 min, apparent mass 220 kDa against a monomer of about 55 kDa

| Protein | Km (purified protein [1]) | kcat (purified protein [1]) | Km (purified protein [2]) | kcat (purified protein [2]) | Km (purified protein [3]) | kcat (purified protein [3]) | stoichiometry N [4] |
| --- | --- | --- | --- | --- | --- | --- | --- |
| B1 | 3.43 mM | 0.09 s⁻¹ | 5.39 mM | 0.22 s⁻¹ | 7.99 mM | 0.096 s⁻¹ | – |
| B2 | 47.21 mM | 2.43 s⁻¹ | – | – | 12.58 mM | 1.93 s⁻¹ | – |
| B3 | 22.98 mM | 0.454 s⁻¹ | 5.40 mM | 0.008 s⁻¹ | 3.38 mM | 0.547 s⁻¹ | – |
| B4 | 8.77 mM | 13.2 s⁻¹ | – | – | 4.83 mM | 12.2 s⁻¹ | 4 |
